In patent publication US20150344570A1 (published 2015):

T1: FcγRIIa R (FcγRIIa allotype with Arg at position 131), extracellular domain with C-terminal His tag (human, UniProt P12318 34-217)
T1 construct: extracellular domain; made in FreeStyle293 cells; analyte in the Biacore assay; also called FcγRIIa type R; 2aR
T1 sequence (looked up): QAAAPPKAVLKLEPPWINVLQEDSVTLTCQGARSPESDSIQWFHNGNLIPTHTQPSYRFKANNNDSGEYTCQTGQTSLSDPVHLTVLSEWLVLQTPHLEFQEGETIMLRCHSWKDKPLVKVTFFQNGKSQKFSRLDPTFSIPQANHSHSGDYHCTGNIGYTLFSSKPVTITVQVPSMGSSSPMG

T2: FcγRIIb, extracellular domain with C-terminal His tag (human, UniProt P31994 43-217)
T2 construct: extracellular domain; made in FreeStyle293 cells; analyte in the Biacore assay; also called 2b; FcgRIIb
T2 sequence (looked up): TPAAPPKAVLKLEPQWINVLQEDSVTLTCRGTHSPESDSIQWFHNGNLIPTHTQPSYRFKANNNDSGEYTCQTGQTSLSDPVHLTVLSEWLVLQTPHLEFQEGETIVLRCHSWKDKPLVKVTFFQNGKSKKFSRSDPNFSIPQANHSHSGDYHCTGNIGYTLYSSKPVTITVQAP


What was measured:
[1] = biological target: T1, FcγRIIa R (FcγRIIa allotype with Arg at …); assay: SPR (Biacore); He/Con_2aR divided by He/Con_2b, binding to FcγRIIa R against binding to FcγRIIb
Procedure: The heterodimerized antibodies He Abs in which one of the H chains was introduced with an alteration were assayed for their binding activities to each activating FcγR and inhibitory FcγR according to the method described in Example 4. […] The activating FcγRs in FIGS. 26, 27, 28, and 29 are FcγRIa, FcγRIIa (R), FcγRIIa (H), and FcγRIIIa, respectively.
Analysis of interaction between objective antibody and the FcγR was carried out using Biacore T100 (GE Healthcare). HBS-EP+ (GE Healthcare) was used as the running buffer, and the measurement temperature was set to 25° C. Chips produced by immobilizing the antigen peptide by the amine coupling method to a Series S Sencor Chip CM5 (GE Healthcare), or alternatively, chips produced by allowing preliminarily biotinylated antigen peptides to interact with and immobilize onto a Series S Sensor Chip SA (certified) (GE Healthcare) were used. Antibodies of interest were captured onto an antigen peptide-immobilized chip, and allowed to interact to each FcγR diluted with running buffer. To regenerate and repeatedly use the chip, the antibodies captured on the chip were washed off by reacting 10 mM glycine-HCl, pH 1.5.

[2] = biological target: T2, FcγRIIb, extracellular domain with …; assay: SPR (Biacore), antibody captured, FcγR analyte; vs GpH7-A5/GpH7-B3/GpL16-k0 = 100
[3] = biological target: T1, FcγRIIa R (FcγRIIa allotype with Arg at …); assay: as above

| Binder | He_2aR/2b (IIaR/IIb) [1] [ratio] | He/Con_2b [2] | He/Con_2aR [3] |
| --- | --- | --- | --- |
| GpH7-A5/GpH7-B3 variant G236_02A/GpL16-k0 (antibody, human IgG1, kappa, heterodimerized IgG1, mutation in one H chain only; also called He Ab) heavy 1: not shown heavy 2: not shown light: DIVMTQSPLSLPVTPGEPASISCQASESLVHSNRNTYLHWYLQKPGQSPQLLIYKVSNRFSGVPDRFSGSGSGTDFTLKISRVEAEDVGVYYCSQNTHVPPTFGQGTKVEIERTVAAPSVFIFPPSDEQLKSGTASVVCLLNNFYPREAKVQWKVDNALQSGNSQESVTEQDSKDSTYSLSSTLTLSKADYEKHKVYACEVTHQGLSSPVTKSFNRGEC | 1.51 | 96.5 relative (HeCon Ab = 100) | 146 relative (HeCon Ab = 100) |
| GpH7-A5/GpH7-B3 variant G236_07I/GpL16-k0 (antibody, human IgG1, kappa, heterodimerized IgG1, mutation in one H chain only; also called He Ab) heavy 1: not shown heavy 2: not shown light: DIVMTQSPLSLPVTPGEPASISCQASESLVHSNRNTYLHWYLQKPGQSPQLLIYKVSNRFSGVPDRFSGSGSGTDFTLKISRVEAEDVGVYYCSQNTHVPPTFGQGTKVEIERTVAAPSVFIFPPSDEQLKSGTASVVCLLNNFYPREAKVQWKVDNALQSGNSQESVTEQDSKDSTYSLSSTLTLSKADYEKHKVYACEVTHQGLSSPVTKSFNRGEC | 2.81 | 31 relative (HeCon Ab = 100) | 87.1 relative (HeCon Ab = 100) |
| GpH7-A5/GpH7-B3 variant G236_12R/GpL16-k0 (antibody, human IgG1, kappa, heterodimerized IgG1, mutation in one H chain only; also called He Ab) heavy 1: not shown heavy 2: not shown light: DIVMTQSPLSLPVTPGEPASISCQASESLVHSNRNTYLHWYLQKPGQSPQLLIYKVSNRFSGVPDRFSGSGSGTDFTLKISRVEAEDVGVYYCSQNTHVPPTFGQGTKVEIERTVAAPSVFIFPPSDEQLKSGTASVVCLLNNFYPREAKVQWKVDNALQSGNSQESVTEQDSKDSTYSLSSTLTLSKADYEKHKVYACEVTHQGLSSPVTKSFNRGEC | 3.55 | 6.8 relative (HeCon Ab = 100) | 24.1 relative (HeCon Ab = 100) |
| GpH7-A5/GpH7-B3 variant G236_04F/GpL16-k0 (antibody, human IgG1, kappa, heterodimerized IgG1, mutation in one H chain only; also called He Ab) heavy 1: not shown heavy 2: not shown light: DIVMTQSPLSLPVTPGEPASISCQASESLVHSNRNTYLHWYLQKPGQSPQLLIYKVSNRFSGVPDRFSGSGSGTDFTLKISRVEAEDVGVYYCSQNTHVPPTFGQGTKVEIERTVAAPSVFIFPPSDEQLKSGTASVVCLLNNFYPREAKVQWKVDNALQSGNSQESVTEQDSKDSTYSLSSTLTLSKADYEKHKVYACEVTHQGLSSPVTKSFNRGEC | 1.35 | 39.3 relative (HeCon Ab = 100) | 53.1 relative (HeCon Ab = 100) |
| GpH7-A5/GpH7-B3 variant G236_14T/GpL16-k0 (antibody, human IgG1, kappa, heterodimerized IgG1, mutation in one H chain only; also called He Ab) heavy 1: not shown heavy 2: not shown light: DIVMTQSPLSLPVTPGEPASISCQASESLVHSNRNTYLHWYLQKPGQSPQLLIYKVSNRFSGVPDRFSGSGSGTDFTLKISRVEAEDVGVYYCSQNTHVPPTFGQGTKVEIERTVAAPSVFIFPPSDEQLKSGTASVVCLLNNFYPREAKVQWKVDNALQSGNSQESVTEQDSKDSTYSLSSTLTLSKADYEKHKVYACEVTHQGLSSPVTKSFNRGEC | 1.78 | 57.8 relative (HeCon Ab = 100) | 103 relative (HeCon Ab = 100) |
| GpH7-A5/GpH7-B3 variant L234_05P/GpL16-k0 (antibody, human IgG1, kappa, heterodimerized IgG1, mutation in one H chain only; also called He Ab) heavy 1: not shown heavy 2: not shown light: DIVMTQSPLSLPVTPGEPASISCQASESLVHSNRNTYLHWYLQKPGQSPQLLIYKVSNRFSGVPDRFSGSGSGTDFTLKISRVEAEDVGVYYCSQNTHVPPTFGQGTKVEIERTVAAPSVFIFPPSDEQLKSGTASVVCLLNNFYPREAKVQWKVDNALQSGNSQESVTEQDSKDSTYSLSSTLTLSKADYEKHKVYACEVTHQGLSSPVTKSFNRGEC | 1.23 | 72.9 relative (HeCon Ab = 100) | 89.6 relative (HeCon Ab = 100) |
| GpH7-A5/GpH7-B3 variant G236_03V/GpL16-k0 (antibody, human IgG1, kappa, heterodimerized IgG1, mutation in one H chain only; also called He Ab) heavy 1: not shown heavy 2: not shown light: DIVMTQSPLSLPVTPGEPASISCQASESLVHSNRNTYLHWYLQKPGQSPQLLIYKVSNRFSGVPDRFSGSGSGTDFTLKISRVEAEDVGVYYCSQNTHVPPTFGQGTKVEIERTVAAPSVFIFPPSDEQLKSGTASVVCLLNNFYPREAKVQWKVDNALQSGNSQESVTEQDSKDSTYSLSSTLTLSKADYEKHKVYACEVTHQGLSSPVTKSFNRGEC | 2.6 | 35.3 relative (HeCon Ab = 100) | 91.6 relative (HeCon Ab = 100) |
| GpH7-A5/GpH7-B3 variant G236_13S/GpL16-k0 (antibody, human IgG1, kappa, heterodimerized IgG1, mutation in one H chain only; also called He Ab) heavy 1: not shown heavy 2: not shown light: DIVMTQSPLSLPVTPGEPASISCQASESLVHSNRNTYLHWYLQKPGQSPQLLIYKVSNRFSGVPDRFSGSGSGTDFTLKISRVEAEDVGVYYCSQNTHVPPTFGQGTKVEIERTVAAPSVFIFPPSDEQLKSGTASVVCLLNNFYPREAKVQWKVDNALQSGNSQESVTEQDSKDSTYSLSSTLTLSKADYEKHKVYACEVTHQGLSSPVTKSFNRGEC | 1.41 | 96.7 relative (HeCon Ab = 100) | 136 relative (HeCon Ab = 100) |
| GpH7-A5/GpH7-B3 variant L234_01G/GpL16-k0 (antibody, human IgG1, kappa, heterodimerized IgG1, mutation in one H chain only; also called He Ab) heavy 1: not shown heavy 2: not shown light: DIVMTQSPLSLPVTPGEPASISCQASESLVHSNRNTYLHWYLQKPGQSPQLLIYKVSNRFSGVPDRFSGSGSGTDFTLKISRVEAEDVGVYYCSQNTHVPPTFGQGTKVEIERTVAAPSVFIFPPSDEQLKSGTASVVCLLNNFYPREAKVQWKVDNALQSGNSQESVTEQDSKDSTYSLSSTLTLSKADYEKHKVYACEVTHQGLSSPVTKSFNRGEC | 1.23 | 50.7 relative (HeCon Ab = 100) | 62.3 relative (HeCon Ab = 100) |
| GpH7-A5/GpH7-B3 variant L234_02A/GpL16-k0 (antibody, human IgG1, kappa, heterodimerized IgG1, mutation in one H chain only; also called He Ab) heavy 1: not shown heavy 2: not shown light: DIVMTQSPLSLPVTPGEPASISCQASESLVHSNRNTYLHWYLQKPGQSPQLLIYKVSNRFSGVPDRFSGSGSGTDFTLKISRVEAEDVGVYYCSQNTHVPPTFGQGTKVEIERTVAAPSVFIFPPSDEQLKSGTASVVCLLNNFYPREAKVQWKVDNALQSGNSQESVTEQDSKDSTYSLSSTLTLSKADYEKHKVYACEVTHQGLSSPVTKSFNRGEC | 1.23 | 64.9 relative (HeCon Ab = 100) | 79.6 relative (HeCon Ab = 100) |
| GpH7-A5/GpH7-B3 variant G236_05P/GpL16-k0 (antibody, human IgG1, kappa, heterodimerized IgG1, mutation in one H chain only; also called He Ab) heavy 1: not shown heavy 2: not shown light: DIVMTQSPLSLPVTPGEPASISCQASESLVHSNRNTYLHWYLQKPGQSPQLLIYKVSNRFSGVPDRFSGSGSGTDFTLKISRVEAEDVGVYYCSQNTHVPPTFGQGTKVEIERTVAAPSVFIFPPSDEQLKSGTASVVCLLNNFYPREAKVQWKVDNALQSGNSQESVTEQDSKDSTYSLSSTLTLSKADYEKHKVYACEVTHQGLSSPVTKSFNRGEC | 2.52 | 19 relative (HeCon Ab = 100) | 47.9 relative (HeCon Ab = 100) |
| GpH7-A5/GpH7-B3 variant G236_08L/GpL16-k0 (antibody, human IgG1, kappa, heterodimerized IgG1, mutation in one H chain only; also called He Ab) heavy 1: not shown heavy 2: not shown light: DIVMTQSPLSLPVTPGEPASISCQASESLVHSNRNTYLHWYLQKPGQSPQLLIYKVSNRFSGVPDRFSGSGSGTDFTLKISRVEAEDVGVYYCSQNTHVPPTFGQGTKVEIERTVAAPSVFIFPPSDEQLKSGTASVVCLLNNFYPREAKVQWKVDNALQSGNSQESVTEQDSKDSTYSLSSTLTLSKADYEKHKVYACEVTHQGLSSPVTKSFNRGEC | 2.45 | 26.8 relative (HeCon Ab = 100) | 65.8 relative (HeCon Ab = 100) |
| GpH7-A5/GpH7-B3 variant G236_06M/GpL16-k0 (antibody, human IgG1, kappa, heterodimerized IgG1, mutation in one H chain only; also called He Ab) heavy 1: not shown heavy 2: not shown light: DIVMTQSPLSLPVTPGEPASISCQASESLVHSNRNTYLHWYLQKPGQSPQLLIYKVSNRFSGVPDRFSGSGSGTDFTLKISRVEAEDVGVYYCSQNTHVPPTFGQGTKVEIERTVAAPSVFIFPPSDEQLKSGTASVVCLLNNFYPREAKVQWKVDNALQSGNSQESVTEQDSKDSTYSLSSTLTLSKADYEKHKVYACEVTHQGLSSPVTKSFNRGEC | 1.26 | 45.5 relative (HeCon Ab = 100) | 57.3 relative (HeCon Ab = 100) |
| GpH7-A5/GpH7-B3 variant L234_11K/GpL16-k0 (antibody, human IgG1, kappa, heterodimerized IgG1, mutation in one H chain only; also called He Ab) heavy 1: not shown heavy 2: not shown light: DIVMTQSPLSLPVTPGEPASISCQASESLVHSNRNTYLHWYLQKPGQSPQLLIYKVSNRFSGVPDRFSGSGSGTDFTLKISRVEAEDVGVYYCSQNTHVPPTFGQGTKVEIERTVAAPSVFIFPPSDEQLKSGTASVVCLLNNFYPREAKVQWKVDNALQSGNSQESVTEQDSKDSTYSLSSTLTLSKADYEKHKVYACEVTHQGLSSPVTKSFNRGEC | 1.66 | 16.2 relative (HeCon Ab = 100) | 26.8 relative (HeCon Ab = 100) |
